Here are results for one molecule from US20150065420A1 (EXTEND BIOSCIENCES, published 2015).

The assay concerns the target GHS-R (ghrelin receptor) expressed on CHO-K1 cells. The assay is described as follows: cell-based or functional assay.

Sequence of GHS-R (ghrelin receptor) expressed on CHO-K1 cells (Q92847 whole entry): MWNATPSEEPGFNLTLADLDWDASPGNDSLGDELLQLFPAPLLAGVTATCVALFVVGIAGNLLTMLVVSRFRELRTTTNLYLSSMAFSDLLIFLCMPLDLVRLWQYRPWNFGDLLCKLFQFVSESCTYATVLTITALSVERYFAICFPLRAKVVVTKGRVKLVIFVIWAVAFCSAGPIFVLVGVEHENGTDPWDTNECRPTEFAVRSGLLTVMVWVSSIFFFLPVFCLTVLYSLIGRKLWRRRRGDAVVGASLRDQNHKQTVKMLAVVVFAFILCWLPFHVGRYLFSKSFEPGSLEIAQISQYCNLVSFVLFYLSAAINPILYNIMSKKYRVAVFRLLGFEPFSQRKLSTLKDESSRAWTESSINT

B1: Vitamin D3-PEG-maleimide carrier-conjugated ghrelin from Example 3 (peptide)
peptide: GSSFLSPEHQKAQQRKESKKPPAKLQPRC
modifications: n-octanoyl on Ser 3; added C-terminal Cys conjugated through its thiol to the Vitamin D3-PEG(2 kDa)-maleimide carrier of Example 1
With B1, the “EC50 of intracellular calcium flux (FLIPR, % activation) in GHS-R-expressing CHO-K1 cells” value came to 85 nM.
